The record followed here is PMC4490372, “Architecture of TFIIIC and its role in RNA polymerase III pre-initiation complex assembly” (Nature Communications, 2015).

The target in the assay is T1, τ138 (Tfc3), τB subunit of endogenous S. cerevisiae TFIIIC (S. cerevisiae, UniProt P34111 1-1160).
T1 construct: τ138 (Tfc3), subunit of S. cerevisiae TFIIIC, endogenous subunit in the purified complex; source: endogenous, purified from S. cerevisiae strain SC2342 as part of TFIIIC (TAP tag on τ60)
T1 sequence (looked up): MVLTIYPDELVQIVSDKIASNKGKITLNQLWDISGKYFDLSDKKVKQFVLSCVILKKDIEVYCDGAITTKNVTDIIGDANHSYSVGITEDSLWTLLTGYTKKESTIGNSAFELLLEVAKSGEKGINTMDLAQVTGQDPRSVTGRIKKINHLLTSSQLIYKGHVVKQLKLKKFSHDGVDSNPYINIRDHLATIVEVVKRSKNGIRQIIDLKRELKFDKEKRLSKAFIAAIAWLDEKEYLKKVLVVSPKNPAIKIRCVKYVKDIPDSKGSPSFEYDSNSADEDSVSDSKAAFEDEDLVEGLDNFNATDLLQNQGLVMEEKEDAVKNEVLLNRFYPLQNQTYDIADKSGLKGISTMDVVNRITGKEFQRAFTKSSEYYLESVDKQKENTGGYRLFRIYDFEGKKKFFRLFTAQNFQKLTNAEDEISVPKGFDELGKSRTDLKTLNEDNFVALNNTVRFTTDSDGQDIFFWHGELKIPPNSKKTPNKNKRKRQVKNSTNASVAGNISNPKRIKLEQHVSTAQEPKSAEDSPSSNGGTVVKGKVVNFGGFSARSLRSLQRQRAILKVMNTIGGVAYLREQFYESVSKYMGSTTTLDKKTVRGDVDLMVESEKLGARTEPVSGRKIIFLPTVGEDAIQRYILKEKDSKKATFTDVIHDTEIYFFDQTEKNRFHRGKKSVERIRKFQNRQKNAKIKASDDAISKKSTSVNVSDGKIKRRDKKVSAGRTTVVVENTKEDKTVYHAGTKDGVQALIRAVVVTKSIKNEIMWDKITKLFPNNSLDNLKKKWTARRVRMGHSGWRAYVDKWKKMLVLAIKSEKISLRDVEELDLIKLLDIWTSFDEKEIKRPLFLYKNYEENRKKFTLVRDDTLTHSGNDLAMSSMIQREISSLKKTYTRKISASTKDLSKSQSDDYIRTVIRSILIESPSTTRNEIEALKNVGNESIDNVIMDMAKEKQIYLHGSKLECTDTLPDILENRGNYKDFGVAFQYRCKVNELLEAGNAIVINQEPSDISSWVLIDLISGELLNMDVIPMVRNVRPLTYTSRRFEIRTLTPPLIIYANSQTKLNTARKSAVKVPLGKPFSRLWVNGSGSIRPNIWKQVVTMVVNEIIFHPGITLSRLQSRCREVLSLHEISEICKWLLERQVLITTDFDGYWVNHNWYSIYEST
The assay is described as follows: cross-linking; XL-MS: purified endogenous TFIIIC (30 μg, 1 μg/μl) cross-linked with H12/D12 DSS to 2 mM, 40 min at 37 °C; ld-score >25. The settings on record: both partners purified.

B1: τ91 (Tfc6), τB subunit of endogenous S. cerevisiae TFIIIC (natural protein, UniProt Q06339 1-672, looked up)
chain: MAVIPAKKRGRPRKSVVAEVPYDSLASPVSENSGSKRPRRNASKKAVANFAQLVHAGRDDVINTTQVNNVDDTDDDDFVLNDEGDGEESDNVEIEFENELESTKNEVADLNSSGSGASVRPSGRRNTVQKLRLKKNSTKNMKSSSPGSSLGQKGRPIRLLKDLSSARDKIERIYGLNKEKLLLLAKVKEGFETSVFDFPFKNIQPDSPYFVCLDPPCKKESAYNKVIGDKNRTVYHEINKTEFENMIKLRTKRLKLLIGEVDAEVSTGDKIEFPVLANGKRRGFIYNVGGLVTDIAWLNIEENTDIGKDIQYLAVAVSQYMDEPLNEHLEMFDKEKHSSCIQIFKMNTSTLHCVKVQTIVHSFGEVWDLKWHEGCHAPHLVGCLSFVSQEGTINFLEIIDNATDVHVFKMCEKPSLTLSLADSLITTFDFLSPTTVVCGFKNGFVAEFDLTDPEVPSFYDQVHDSYILSVSTAYSDFEDTVVSTVAVDGYFYIFNPKDIATTKTTVSRFRGSNLVPVVYCPQIYSYIYSDGASSLRAVPSRAAFAVHPLVSRETTITAIGVSRLHPMVLAGSADGSLIITNAARRLLHGIKNSSATQKSLRLWKWDYSIKDDKYRIDSSYEVYPLTVNDVSKAKIDAHGINITCTKWNETSAGGKCYAFSNSAGLLTLEYLS
notes: τ91 (Tfc6), subunit of S. cerevisiae TFIIIC, endogenous subunit in the purified complex; source: endogenous, purified from S. cerevisiae strain SC2342 as part of TFIIIC (TAP tag on τ60)
For the molecule B1, the binding result is on record as “binds”.

B2: τ131 (Tfc4), τA subunit of endogenous S. cerevisiae TFIIIC (natural protein, UniProt P33339 1-1025, looked up)
chain: MAAGKLKKEQQNQSAERESADTGKVNDEDEEHLYGNIDDYKHLIQDEEYDDEDVPHDLQLSEDEYNSERDSSLLAEFSDYGEISEDDEEDFMNAIREASNFKVKKKKKNDKGKSYGRQRKERVLDPEVAQLLSQANEAFVRNDLQVAERLFNEVIKKDARNFAAYETLGDIYQLQGRLNDCCNSWFLAAHLNASDWEFWKIVAILSADLDHVRQAIYCFSRVISLNPMEWESIYRRSMLYKKTGQLARALDGFQRLYMYNPYDANILRELAILYVDYDRIEDSIELYMKVFNANVERREAILAALENALDSSDEESAAEGEDADEKEPLEQDEDRQMFPDINWKKIDAKYKCIPFDWSSLNILAELFLKLAVSEVDGIKTIKKCARWIQRRESQTFWDHVPDDSEFDNRRFKNSTFDSLLAAEKEKSYNIPIDIRVRLGLLRLNTDNLVEALNHFQCLYDETFSDVADLYFEAATALTRAEKYKEAIDFFTPLLSLEEWRTTDVFKPLARCYKEIESYETAKEFYELAIKSEPDDLDIRVSLAEVYYRLNDPETFKHMLVDVVEMRKHQVDETLHRISNEKSSNDTSDISSKPLLEDSKFRTFRKKKRTPYDAERERIERERRITAKVVDKYEKMKKFELNSGLNEAKQASIWINTVSELVDIFSSVKNFFMKSRSRKFVGILRRTKKFNTELDFQIERLSKLAEGDSVFEGPLMEERVTLTSATELRGLSYEQWFELFMELSLVIAKYQSVEDGLSVVETAQEVNVFFQDPERVKMMKFVKLAIVLQMDDEEELAENLRGLLNQFQFNRKVLQVFMYSLCRGPSSLNILSSTIQQKFFLRQLKAFDSCRYNTEVNGQASITNKEVYNPNKKSSPYLYYIYAVLLYSSRGFLSALQYLTRLEEDIPDDPMVNLLMGLSHIHRAMQRLTAQRHFQIFHGLRYLYRYHKIRKSLYTDLEKQEADYNLGRAFHLIGLVSIAIEYYNRVLENYDDGKLKKHAAYNSIIIYQQSGNVELADHLMEKYLSI
notes: τ131 (Tfc4), subunit of S. cerevisiae TFIIIC, endogenous subunit in the purified complex; Endogenous subunit; source: endogenous, purified from S. cerevisiae strain SC2342 as part of TFIIIC (TAP tag on τ60)
B2: the binding result was “binds”.
